Patent US20200392227A1 (LYVGEN BIOPHARMA, published 2020)
Read-outs that look alike come from different tables or passages of the source.

Columns and labels:
[1] = biological target: T1, human FcRIIA protein (MednaBio, E1033) (human, UniProt P12318 34-218, limits assumed); test: BLI
T1 construct: Bought; also called FcγRIIA
T1 sequence (looked up): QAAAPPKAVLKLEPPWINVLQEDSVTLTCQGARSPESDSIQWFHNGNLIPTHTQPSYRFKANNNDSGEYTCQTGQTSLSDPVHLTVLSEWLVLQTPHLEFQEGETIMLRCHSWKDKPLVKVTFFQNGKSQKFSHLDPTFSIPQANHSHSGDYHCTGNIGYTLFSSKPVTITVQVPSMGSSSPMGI
Outline: (§1)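 On an Octet Red96 System, anti-penta-HIS biosensors loaded with commercial human Fc receptor proteins were dipped into test IgG diluted 1:3 over 8 points from 300 nM. Fcγ receptor runs used pH 7.2 and FcRn runs used pH 6. Global fitting of these biolayer interferometry data gave the values for Kd, kon and koff, using a 1:1 binding model.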

[2] = biological target: T2, human FcRIIIB protein (MednaBio, E1037) (human, UniProt O75015 17-200); test: BLI
T2 construct: Bought; also called FcγRIIIB; FcgRIIIB
T2 sequence (O75015 17-200 limits assumed): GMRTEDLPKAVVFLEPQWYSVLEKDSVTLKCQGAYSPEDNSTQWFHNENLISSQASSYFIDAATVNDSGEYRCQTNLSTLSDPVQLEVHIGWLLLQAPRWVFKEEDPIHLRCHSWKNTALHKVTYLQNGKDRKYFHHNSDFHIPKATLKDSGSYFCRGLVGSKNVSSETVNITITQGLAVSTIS
Outline: as §1

[3] = biological target: T3, human FcRIIIA-F158 protein (MednaBio, E1036) (human, UniProt P08637 17-208); test: BLI
T3 construct: Bought; also called FcγRIIIA(F)
T3 sequence (P08637 17-208 limits assumed): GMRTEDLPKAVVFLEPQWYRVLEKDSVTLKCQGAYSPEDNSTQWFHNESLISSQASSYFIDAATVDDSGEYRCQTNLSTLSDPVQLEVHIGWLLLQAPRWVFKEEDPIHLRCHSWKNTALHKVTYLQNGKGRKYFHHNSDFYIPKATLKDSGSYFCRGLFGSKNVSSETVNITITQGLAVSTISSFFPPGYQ
Outline: as §1

[4] = biological target: T4, human FcRI protein (MednaBio, E1031) (human, UniProt P12314 16-288, limits assumed); test: BLI
T4 construct: Bought; loaded on anti-penta-HIS biosensors; also called FcγRI
T4 sequence (P12314 16-288 limits assumed): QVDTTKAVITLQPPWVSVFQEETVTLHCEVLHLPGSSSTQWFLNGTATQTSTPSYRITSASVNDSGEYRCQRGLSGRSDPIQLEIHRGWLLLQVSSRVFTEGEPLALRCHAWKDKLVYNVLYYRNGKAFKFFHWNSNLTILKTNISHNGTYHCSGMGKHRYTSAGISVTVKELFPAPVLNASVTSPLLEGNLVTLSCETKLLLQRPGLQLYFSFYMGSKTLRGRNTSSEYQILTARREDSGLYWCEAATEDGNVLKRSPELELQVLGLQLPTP
Outline: as §1

[5] = biological target: T5, human FcRIIIA-V158 protein (MednaBio, E1035) (human, UniProt P08637 17-208); test: BLI
T5 construct: Bought; also called FcγRIIIA(V); FcgRIIIA(V)
T5 sequence (P08637 17-208 F176V): as the sequence (P08637 17-208 limits assumed) above, with F160V counted along it
Outline: as §1

[6] = biological target: T6, human FcRIIB/C protein (MednaBio, E1034) (human, UniProt P31994 43-217, limits assumed); test: BLI
T6 construct: Bought as FcRIIB/C; also called FcγRIIB; CD32B
T6 sequence (looked up): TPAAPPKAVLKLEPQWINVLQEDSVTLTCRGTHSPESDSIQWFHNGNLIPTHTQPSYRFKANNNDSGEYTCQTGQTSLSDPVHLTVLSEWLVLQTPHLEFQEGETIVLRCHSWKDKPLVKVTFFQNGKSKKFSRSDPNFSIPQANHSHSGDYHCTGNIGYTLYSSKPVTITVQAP
Outline: as §1

[7] = biological target: T7, human FcRn protein (MednaBio, E1032) (human, UniProt P55899 24-297; P61769 21-119); test: BLI
T7 construct: Bought; assays at pH 6
T7 sequence (P55899 24-297 limits assumed, form in doubt, chain 1 of 2): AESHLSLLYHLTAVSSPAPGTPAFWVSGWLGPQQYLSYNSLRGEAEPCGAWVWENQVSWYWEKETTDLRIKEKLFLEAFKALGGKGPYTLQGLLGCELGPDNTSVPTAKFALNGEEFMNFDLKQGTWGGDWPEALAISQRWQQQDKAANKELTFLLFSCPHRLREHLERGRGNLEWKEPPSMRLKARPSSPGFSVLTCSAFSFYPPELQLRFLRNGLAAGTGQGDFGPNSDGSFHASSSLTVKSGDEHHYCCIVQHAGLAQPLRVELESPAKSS
T7 sequence (P61769 21-119 limits assumed, form in doubt, chain 2 of 2): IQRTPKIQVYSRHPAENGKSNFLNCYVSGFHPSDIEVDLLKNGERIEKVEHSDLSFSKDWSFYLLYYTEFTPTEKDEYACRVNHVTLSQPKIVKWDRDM
Outline: as §1

[8] = biological target: T8, human FcγRIIA(R131) expressed on CHO cells (human, UniProt P12318 34-317); test: FACS, CHO cells expressing FcγRIIA(R131)
T8 construct: whole, on cells
T8 sequence (looked up): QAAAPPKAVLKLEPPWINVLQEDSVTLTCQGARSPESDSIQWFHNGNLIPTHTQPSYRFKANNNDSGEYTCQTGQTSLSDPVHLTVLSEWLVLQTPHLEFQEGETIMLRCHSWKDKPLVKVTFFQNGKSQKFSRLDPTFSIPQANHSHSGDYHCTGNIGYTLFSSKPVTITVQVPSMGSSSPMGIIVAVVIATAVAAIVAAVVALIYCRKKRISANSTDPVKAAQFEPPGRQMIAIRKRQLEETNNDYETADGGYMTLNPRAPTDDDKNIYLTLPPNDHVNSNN
Description: FIGS. 1A-1W are charts showing binding activity of various IgG variants as indicated to different types of Fcγ receptors expressed on CHO-K1 cells at the various concentrations as indicated. The concentrations of each IgG variant, from left to right, are 0 μg/ml, 0.3 μg/ml, 1 μg/ml, 3 μg/ml, and 10 μg/ml in FIGS. 1A-1C, 1E-J, 1L-1M, 1P-1R, and 1T-1V. For FIGS. 1D, 1K, 10, 1S, and 1w the bars, from left to right, correspond to the following concentrations of IgG variant: 0.3 μg/ml, 1 μg/ml, 3 μg/ml, and 10 μg/ml.
(§2) For FACS analysis of the IgG mutants' binding to different FcγRs, FcγR overexpressing CHO cells were harvested using trypsin-EDTA and were suspended in cold staining buffer (3% BSA in PBS). Test IgG mutants, which were diluted in staining buffer, were added into the cells. The mixture was incubated 4° C. for 2 hours, and then washed twice with cold staining buffer and re-suspended in PE-labeled anti-human IgG followed by incubation at 4° C. for 2 hours. The mixture was washed twice with staining buffer and re-suspended in 2% PFA in PBS for FACS.

[9] = biological target: T9, human FcγRIIA(H131) expressed on CHO cells (human, UniProt P12318 34-317); test: FACS, CHO cells expressing FcγRIIA(H131)
T9 construct: whole, on cells
T9 sequence (looked up): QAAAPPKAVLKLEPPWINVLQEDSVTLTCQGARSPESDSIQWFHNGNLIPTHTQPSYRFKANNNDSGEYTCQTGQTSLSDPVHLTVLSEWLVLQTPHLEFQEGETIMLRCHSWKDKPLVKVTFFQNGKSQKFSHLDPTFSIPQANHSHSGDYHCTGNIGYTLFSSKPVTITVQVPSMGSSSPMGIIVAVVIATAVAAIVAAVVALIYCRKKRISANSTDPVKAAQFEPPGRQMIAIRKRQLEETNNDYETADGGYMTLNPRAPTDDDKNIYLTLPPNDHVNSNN
Description: as §2

[10] = biological target: T1, human FcRIIA protein (MednaBio, E1033); test: BLI; remark: listed apart in the source
Description: (§3) These IgG mutants were tested for binding to a panel of human Fc receptors (FcRs), including FcRn, using the Octet Red96 System (ForteBio, Model #Red96). Human FcR proteins were purchased commercially (FcRn, MednaBio, E1032; FcRI, MednaBio, E1031; FcRIIA, MednaBio, E1033; FcRIIB/C, MednaBio, E1034; FcRIIIA-F158, MednaBio, E1036; FcRIIIA-V158, MednaBio, E1035; FcRIIIB, MednaBio, E1037). All Fey receptor assays were performed at pH 7.2; all FcRn assays were performed at pH 6. The Fey receptors were loaded onto anti-penta-HIS1K (ForteBio, Cat #18-5122) biosensors at a concentration of 20 μg/mL. The loaded biosensors was then be dipped into an 8-point 1:3 dilution series of the test IgG molecules (including controls and the mutants described herein) in PBS with 0.1% BSA, 0.02% Tween-20 (pH 7.2) at a starting concentration of 300 nM. Kinetic analysis was performed using a 1:1 binding model and global fitting.

[11] = biological target: T2, human FcRIIIB protein (MednaBio, E1037); test: BLI; remark: listed apart in the source
Description: as §3

[12] = biological target: T3, human FcRIIIA-F158 protein (MednaBio, …); test: BLI; remark: listed apart in the source
Description: as §3

[13] = biological target: T4, human FcRI protein (MednaBio, E1031); test: BLI; remark: listed apart in the source
Description: as §3

[14] = biological target: T5, human FcRIIIA-V158 protein (MednaBio, …); test: BLI; remark: listed apart in the source
Description: as §3

[15] = biological target: T6, human FcRIIB/C protein (MednaBio, E1034); test: BLI; remark: listed apart in the source
Description: as §3

[16] = biological target: T7, human FcRn protein (MednaBio, E1032); test: BLI; remark: listed apart in the source
Description: as §3

[17] = biological target: T10, human FcγRIIC expressed on CHO cells (human, UniProt P31995 43-323); test: FACS, CHO cells expressing FcγRIIC
T10 construct: whole, on cells
T10 sequence (looked up): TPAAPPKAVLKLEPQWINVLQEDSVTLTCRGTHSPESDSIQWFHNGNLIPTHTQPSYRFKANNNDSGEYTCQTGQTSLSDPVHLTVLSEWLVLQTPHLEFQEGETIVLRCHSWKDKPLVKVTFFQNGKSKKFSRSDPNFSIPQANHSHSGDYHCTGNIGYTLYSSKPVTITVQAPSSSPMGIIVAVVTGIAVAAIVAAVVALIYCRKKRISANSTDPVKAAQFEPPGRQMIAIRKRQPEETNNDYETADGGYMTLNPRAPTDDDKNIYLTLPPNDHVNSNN

[18] = biological target: T11, human FcγRIIB expressed on CHO cells (human, UniProt P31994 43-310); test: FACS, CHO cells expressing FcγRIIB
T11 construct: whole, on cells; also called CD32B
T11 sequence (looked up): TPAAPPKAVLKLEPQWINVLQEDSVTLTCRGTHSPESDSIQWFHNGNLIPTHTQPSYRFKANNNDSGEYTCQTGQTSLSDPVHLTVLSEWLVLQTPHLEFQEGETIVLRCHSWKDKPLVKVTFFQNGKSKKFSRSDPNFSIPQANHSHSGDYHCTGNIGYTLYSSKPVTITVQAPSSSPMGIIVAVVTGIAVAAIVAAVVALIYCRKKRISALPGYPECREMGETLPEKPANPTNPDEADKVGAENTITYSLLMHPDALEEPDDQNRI
Description: as §2

B1: anti-CD137 IgG1 with Fc variant G1mAA (antibody)
heavy: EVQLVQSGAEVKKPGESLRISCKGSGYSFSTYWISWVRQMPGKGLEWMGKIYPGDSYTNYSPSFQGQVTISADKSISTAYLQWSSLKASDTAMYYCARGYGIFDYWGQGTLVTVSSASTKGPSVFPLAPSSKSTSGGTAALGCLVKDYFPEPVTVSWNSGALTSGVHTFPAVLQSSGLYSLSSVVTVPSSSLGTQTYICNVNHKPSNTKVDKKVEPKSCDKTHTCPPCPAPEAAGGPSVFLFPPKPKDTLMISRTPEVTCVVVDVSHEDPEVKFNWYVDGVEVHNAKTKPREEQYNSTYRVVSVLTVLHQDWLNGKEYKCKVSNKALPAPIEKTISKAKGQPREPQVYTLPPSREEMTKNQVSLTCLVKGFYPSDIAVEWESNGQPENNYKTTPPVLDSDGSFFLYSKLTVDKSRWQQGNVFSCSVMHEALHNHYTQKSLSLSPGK
light: SYELTQPPSVSVSPGQTASITCSGDNIGDQYAHWYQQKPGQSPVLVIYQDKNRPSGIPERFSGSNSGNTATLTISGTQAMDEADYYCATYTGFGSLAVFGGGTKLTVLGQPKAAPSVTLFPPSSEELQANKATLVCLISDFYPGAVTVAWKADSSPVKAGVETTTPSKQSNNKYAASSYLSLTPEQWKSHRSYSCQVTHEGSTVEKTVAPTECS
notes: copies: 2 + 2
With B1 the Kd [1] was 800 nM, the koff [1] was 0.247 s⁻¹ and the kon [1] was 310000 M⁻¹ s⁻¹. It also gave a Kd [2] of 556 nM, a koff [2] of 0.144 s⁻¹ and a kon [2] of 258000 M⁻¹ s⁻¹. The Kd [3] was 1500 nM, the koff [3] was 0.175 s⁻¹ and the kon [3] was 116000 M⁻¹ s⁻¹. It also gave a Kd [4] of 235 nM, a koff [4] of 0.0337 s⁻¹ and a kon [4] of 144000 M⁻¹ s⁻¹. For the same binder, the Kd [5] was 456 nM, the koff [5] was 0.042 s⁻¹ and the kon [5] was 92300 M⁻¹ s⁻¹. It also gave a Kd [6] of 656 nM, a koff [6] of 0.156 s⁻¹ and a kon [6] of 238000 M⁻¹ s⁻¹. It also gave a Kd [7] of 18.8 nM, a koff [7] of 0.015 s⁻¹ and a kon [7] of 803000 M⁻¹ s⁻¹. B1: no binding (tested: 10 ug/ml) [8].

B2: anti-CD137 IgG1 with Fc variant G1m2 (antibody)
heavy: EVQLVQSGAEVKKPGESLRISCKGSGYSFSTYWISWVRQMPGKGLEWMGKIYPGDSYTNYSPSFQGQVTISADKSISTAYLQWSSLKASDTAMYYCARGYGIFDYWGQGTLVTVSSASTKGPSVFPLAPSSKSTSGGTAALGCLVKDYFPEPVTVSWNSGALTSGVHTFPAVLQSSGLYSLSSVVTVPSSSLGTQTYICNVNHKPSNTKVDKKVEPKSCDKTHTCPPCPAPELLGPSVFLFPPKPKDTLMISRTPEVTCVVVDVSHEDPEVKFNWYVDGVEVHNAKTKPREEQYNSTYRVVSVLTVLHQDWLNGKEYKCKVSNKALPAPIEKTISKAKGQPREPQVYTLPPSREEMTKNQVSLTCLVKGFYPSDIAVEWESNGQPENNYKTTPPVLDSDGSFFLYSKLTVDKSRWQQGNVFSCSVMHEALHNHYTQKSLSLSPGK
light: SYELTQPPSVSVSPGQTASITCSGDNIGDQYAHWYQQKPGQSPVLVIYQDKNRPSGIPERFSGSNSGNTATLTISGTQAMDEADYYCATYTGFGSLAVFGGGTKLTVLGQPKAAPSVTLFPPSSEELQANKATLVCLISDFYPGAVTVAWKADSSPVKAGVETTTPSKQSNNKYAASSYLSLTPEQWKSHRSYSCQVTHEGSTVEKTVAPTECS
notes: copies: 2 + 2
B2: no binding (tested: 10 ug/ml) [9]; no binding (tested: 300 nM) [10]; no binding (tested: 300 nM) [11]. B2: no binding (tested: 300 nM) [12]; no binding (tested: 300 nM) [13]; no binding (tested: 300 nM) [14]. For the same binder, the binding result [15] was “no binding (tested: 300 nM)”, the Kd [16] was 13 nM and the koff [16] was 0.0093 s⁻¹. For the same binder, the kon [16] was 710000 M⁻¹ s⁻¹, the binding result [17] was “no binding (tested: 10 ug/ml)” and the binding result [18] was “no binding (tested: 10 ug/ml)”.
